According to article PMC6479361, “Characterization of a New DyP-Peroxidase from the Alkaliphilic Cellulomonad, Cellulomonas bogoriensis” (Molecules, 2019):

Substrate: Nc1c(S(=O)(=O)O)cc(Nc2cccc(S(=O)(=O)CCOS(=O)(=O)O)c2)c2c1C(=O)c1ccccc1C2=O
Assay: purified protein
Assay type: biochemical, Actinotalea bogoriensis
Conditions: 100 µM H2O2, 100 mM citrate pH 5, 50 nM enzyme, His-SUMO fusion

Protein | Km | kcat
CboDyP (Actinotalea bogoriensis 69B4 = DSM 16987) (protein, codon-optimized synthetic gene, recombinant in E. coli NEB 10-beta; N-terminal His-SUMO fusion kept for kinetics, SUMO cleaved for crystals; Tat signal predicted, first 22 residues not visible in crystal; heme-containing; motif GXXEG) VGAGAGARWGSRAPEAPQPARAAGPGDVVVPCHGEHQAGIVTPPPSFIALVALDLASTSDRASVERLLRVWTVDIERLTTGRPGLADSEPELALVPAALTVTVGFGPGLLTAAGLRHRAPAWLHPLPPFGIDRLDPAWCDGDVVLQVCADDRTTLAHAVRVLTKEAQGLASVRWVQRGFRRSPGISEPDGTSMRNLMGQVEGTANLDPRTDPDLLWHRDGEPGWLTGGTSMVVRRIAMNLDTWDELSRGAREATIGRTLRTGAPLTGRAEHDEPDLEALDDHGRPVIDLEAHIRRARPTQREETFLRRAYNYDEAPPPGRASDSGLLFVTYQRDVDAQFTPVQRRLDAADLLNEWTFPVGSAVFAVPGGWSAGEYVGQRLLEG | 17 µM | 0.22 s⁻¹
CboDyP (Actinotalea bogoriensis 69B4 = DSM 16987; E205D) (protein, codon-optimized synthetic gene, recombinant in E. coli NEB 10-beta; N-terminal His-SUMO fusion kept for kinetics, SUMO cleaved for crystals; Tat signal predicted, first 22 residues not visible in crystal; heme-containing; motif GXXEG) VGAGAGARWGSRAPEAPQPARAAGPGDVVVPCHGEHQAGIVTPPPSFIALVALDLASTSDRASVERLLRVWTVDIERLTTGRPGLADSEPELALVPAALTVTVGFGPGLLTAAGLRHRAPAWLHPLPPFGIDRLDPAWCDGDVVLQVCADDRTTLAHAVRVLTKEAQGLASVRWVQRGFRRSPGISEPDGTSMRNLMGQVDGTANLDPRTDPDLLWHRDGEPGWLTGGTSMVVRRIAMNLDTWDELSRGAREATIGRTLRTGAPLTGRAEHDEPDLEALDDHGRPVIDLEAHIRRARPTQREETFLRRAYNYDEAPPPGRASDSGLLFVTYQRDVDAQFTPVQRRLDAADLLNEWTFPVGSAVFAVPGGWSAGEYVGQRLLEG | 36 µM | 2.88 s⁻¹
